Reference: patent US11607466B2, “Tumor and immune cell imaging based on PD-L1 expression” (The Johns Hopkins University, priority 2016, dated 2023)
Values joined by “and” are separate entries in the source; they are usually repeats but may differ in a detail not shown here. Equal entries are not always repeated.

Assays:
PD-L1 in MDAMB231 tumors [1] = molecular target: T1, PD-L1 in MDAMB231 tumors (Homo sapiens, UniProt Q9NZQ7); assay: Effect of AtzMab dose on tumor PD-L1 occupancy, inhibitory sigmoidal Emax model of [64Cu]WL12 % ID/g; type: in vivo
T1 construct: MDAMB231 breast cancer cells, which naturally express PD-L1; endogenous in cells; host or cells: MDAMB231 (ATCC); as xenografts in NSG mice for the in vivo units
T1 sequence (Q9NZQ7 19-290): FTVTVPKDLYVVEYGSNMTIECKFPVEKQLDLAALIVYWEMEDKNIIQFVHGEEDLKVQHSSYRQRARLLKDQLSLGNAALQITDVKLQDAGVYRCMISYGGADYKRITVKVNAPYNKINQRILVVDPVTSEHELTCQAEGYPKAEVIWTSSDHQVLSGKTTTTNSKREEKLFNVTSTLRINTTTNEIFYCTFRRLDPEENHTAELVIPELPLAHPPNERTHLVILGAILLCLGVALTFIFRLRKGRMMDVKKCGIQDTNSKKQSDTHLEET
Experimental: To evaluate the effect of dose on tumor PD-L1 occupancy at the tumor, mice bearing MDAMB231 tumors were injected with escalating doses of AtzMab from 0.009 to 24 mg/kg body weight. […] At the 0.6 and 3.2 mg/kg dose, there was a proportionate decrease in signal intensity in the tumors indicating—for the 3.2 mg/kg dose—a near 100% target engagement at the tumor by the antibody.
The accumulated radioactivity (% ID/g) in the tumors was then used to fit an inhibitory sigmoidal E. model.

PD-L1 in MDAMB231 tumors [2] = molecular target: T1, PD-L1 in MDAMB231 tumors; assay: Tumor PD-L1 engagement by PD-L1 mAbs measured with [64Cu]WL12, MDAMB231 xenografts; type: in vivo; details: AtzMab 20 mg/kg, AveMab 10 mg/kg, DurMab 10 mg/kg, 24 h prior to tracer
mouse PD-L1 = mouse PD-L1 (Mus musculus, UniProt Q9EP73); details: read-out: dissociation constant (Kd), mouse PD-L1; cited from earlier work
mouse PD-L1, sequence (Q9EP73 19-290): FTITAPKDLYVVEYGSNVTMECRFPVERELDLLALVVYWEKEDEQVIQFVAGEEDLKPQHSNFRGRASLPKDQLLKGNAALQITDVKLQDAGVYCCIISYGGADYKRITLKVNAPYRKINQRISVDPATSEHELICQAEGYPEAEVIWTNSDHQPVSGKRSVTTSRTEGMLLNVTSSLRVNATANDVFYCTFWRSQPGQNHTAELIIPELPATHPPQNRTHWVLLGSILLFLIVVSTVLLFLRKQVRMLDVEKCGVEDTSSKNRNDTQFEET

ID90 (PD-L1 in MDAMB231 tumors [1]; 90% of Imax): 0.87 mg/kg
ID96 (PD-L1 in MDAMB231 tumors [1]; 96% of Imax): 1.19 mg/kg
ID50, dose for 50% of the maximum PD-L1 engagement in the tumor (PD-L1 in MDAMB231 tumors [1]; MDAMB231 tumors, 24 h after dose): 0.43 mg/kg and 0.43 (10%) mg/kg
Imax (PD-L1 in MDAMB231 tumors [1]; maximum fractional decrease in free PD-L1 ligands, mean (% RSE)): 0.57 (3%)
Hill coefficient (PD-L1 in MDAMB231 tumors [1]; mean (% RSE)): 3.12 (19%)
Residual error (PD-L1 in MDAMB231 tumors [1]; mean (% RSE)): 0.44 (14%) % ID/g
Baseline free PD-L1 ligands (PD-L1 in MDAMB231 tumors [1]; mean parameter value (% relative standard error)): 5.91 (1%) % ID/g
[64Cu]WL12 accumulation in tumors vs antibody dose (PD-L1 in MDAMB231 tumors [1]; various doses, 24 h prior, biodistribution 2 h after tracer): reduced with increasing antibody dose
[64Cu]WL12 uptake in MDAMB231 xenografts (PD-L1 in MDAMB231 tumors [2]): significantly reduced
Substance: AtzMab: therapeutic PD-L1 antibody Atezolizumab
expected average plasma concentration (PD-L1 in MDAMB231 tumors [1]; at ID50, assuming Vss 50 mL/kg): 59 nM and 8.6 mcg/mL
expected average plasma concentration (PD-L1 in MDAMB231 tumors [1]; at ID90, assuming Vss 50 mL/kg): 120 nM and 17.4 mcg/mL
expected average plasma concentration (PD-L1 in MDAMB231 tumors [1]; at ID96, assuming Vss 50 mL/kg): 164 nM and 23.8 mcg/mL
Kd (mouse PD-L1): 0.13 nM
